Substrate in this data set: S
Description: UV-vis quinone reduction, steady-state kinetics. The format is biochemical, Staphylococcus aureus. Conditions: pH 8.0; 25.0 °C.

B1: S. aureus SQR (sulfide:quinone oxidoreductase) (Staphylococcus aureus subsp. aureus NCTC 8325) (protein)
chain: MNKHYQIVIIGGGTAGVTVASRLLRKNQNLKEKIAIIDPADHHYYQPLWTLVGAGVSSLKSSRKDMESVIPEGANWIKQAVSSFQPENNSVILGDNTVVYYDFLVVAPGLQINWSSIKGLKENIGKNGVCSNYSPDYVNETWNQISNFKQGNAIFTHPNTPIKCGGAPMKIMYLAEDYFRKHKIRSNANVIYATPKDALFDVGKYNKELERIVEERNITVNYNYNLVEIDGDKKVATFEHIKAYDRKTISYDMLHVTPPMGPLDVVKESTLSDSEGWVDVNPTTLQHKSYSNVFALGDASNVPTSKTGAAIRKQAPIVANNLLQVMNNQMLTHHYDGYTSCPIVTGYNRLILAEFDYNKNTKETMPFNQAKERRSMYIFKKDLLPKMYWYGMLKGLI
Consider B1, for which the Michaelis constant (Km) amounted to 22 ± 7 µM, the Vmax was 0.41 µmol/min/mg and the kcat/Km was determined as 14100 ± 4600 M⁻¹ s⁻¹.

As usually defined, the Km is the substrate concentration at which the rate is half of its maximum. What is called Vmax is the top rate of the reaction or transport when substrate is in excess. One may read the kcat/Km as the second-order rate constant that governs catalysis at low substrate concentration.

Values taken from publication PMC5423654.
